Measured values reported in the supplement of paper PMC9170038.

Test system: MS2 coat protein
Assay: apparent KD of MS2 coat protein; designed switch direction (-1 OFF switch, 1 ON switch): -1; higher = weaker reporter binding
In short: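 The reported apparent KD is a per-design median over clusters, from curve fits of normalised cluster fluorescence. Protein titrations used SNAP-549-labelled MS2 coat protein, doubled from 0.7 or 1.5 nM to 3 µM, in Tris-HCl pH 7.5 buffer with KCl, MgCl2, BSA, DTT, tRNA and Tween-20, with no input, 200 uM small-molecule ligand, or an oligonucleotide input. The RNA switches were transcribed on Illumina chips by stalled E. coli RNA polymerase.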

[1] = input ligand: microRNA oligo, concentration not stated
[2] = Eterna round: R95, input ligand: FMN 200 uM
[3] = Eterna round: R95, input ligand: microRNA oligo, concentration not stated
[4] = Eterna round: R95, input ligand: none

Sequence	apparent KD of MS2 coat protein (input ligand: FMN 200 uM)	apparent KD of MS2 coat protein [1]	apparent KD of MS2 coat protein (input ligand: none)	apparent KD of MS2 coat protein [2]	apparent KD of MS2 coat protein [3]	apparent KD of MS2 coat protein [4]
GCACGGAUGGUAGGAUAUCUGUGCGAUUAGCUCAGAGAAGGACCACAUGAGGAUCACCCAUGUACCUCAAUUAACCUUCCGUGC [Eli exng1 - 021] (Eterna round: R96, puzzle: Exclusion NG 1)	16.9 nM	21 nM	17.6 nM	–	–	–
CUAGUCCGAGGAUAUAUUAAGUGAUACAUGAGGAUCACCCAUGUAAUUUAAUGGAAAUAAAUAGAAGGCGGACUAG [Mat - Exclusion 5 - JL mod - D52] (puzzle: Exclusion 5)	–	–	–	44.7 nM	46.2 nM	53.3 nM
GGCACACAUGAGGAUCACCCAUGUGAGGAUAUUAGGCGAUCGUCGAAAGACGAUAGCCUGAGAAGGCACAUGCC [Eli x1 4.12] (Eterna round: R97, puzzle: Exclusion 1)	92.2 nM	–	19.8 nM	–	–	–
ACAAGCUCUUUGCAACUUAGUUUUGUUGCUUCGUAGGUAACAUGAGGAUCACCCAUGUAAGACUGAUGUCGUCUUAU [JR_SV3TOV2_Sub086] (puzzle: Sensor v3, turn-off variant 2)	–	–	–	33.1 nM	21.4 nM	36.8 nM
AAAAGCUAAGGAUAUACAUGAGGAUCACCCAUGUACACCGGUACGGGUGCGAACUCCUGUAGAAGGUGGGAUAA [Atatlege] (puzzle: Exclusion 3)	–	–	–	–	121 nM	–
CAGUACUGAGGAUAUACAUGAGGAUCACCCAUGUGUCCUAGCUAGGAUACUAGCAUUAGUAGAAGGCAGUACUG [Fiskers Ex 3 828 mod 7] (puzzle: Exclusion 3)	–	–	–	–	19.8 nM	–
AAAAGGACAGGAUAUUCGACUCGCAACAUGAGGAUCACCCAUGUGGUCGUCCAGUCGCUCGAAGAAGGGUUAAAAC [Cegeesbe] (puzzle: Exclusion 5)	–	–	–	74.7 nM	26.7 nM	31.3 nM
CACCGUUAGGGAGGAUAUCGUACAUGAGGAUCACCCAUGUAAUAAAUGAGAAUUUCGGAUGUAUGCGAGAAGGCCCAAAUCGGC [Ostracism 42 - Jieux - Exclusion NG 2] (Eterna round: R96, puzzle: Exclusion NG 2)	36.8 nM	35.8 nM	48.4 nM	–	–	–
UGUUGUCGCGUAGGAUAUGAGGAUCACCCAUAUACAGGAUAUGAAAAGAAGGGUCUGAGGAUCACCCAGAAGGACGGGACAACU [pwkr exNG2 2xF5 2xFMN.28] (Eterna round: R96, puzzle: Exclusion NG 2)	1390 nM	94.9 nM	116 nM	–	–	–
AGCCCUGCAGGAUAUGCCCGGGAUAACAUGAGGAUCACCCAUGUGACCGAUUGUUAAUCUGCAGAAGGGCAUGGGA [JL-EX5-4.18 ViennaUCT mod] (Eterna round: R97, puzzle: Exclusion 5)	313 nM	–	563 nM	–	–	–
UGAUUGUUUACCAGAUUAUACAUGAGGAUCACCCAUGUAGAUCCUACGUGCACGUUAUGCAGCUCGUCUUAUUCCCA [Sensor-V1 #73] (Eterna round: R97, puzzle: Sensor, turn-off variant 1)	40.3 nM	–	44.1 nM	–	–	–
AGUACUAACACGAGAGUGUUAGUACUAUAAGCUUGUGUUACAUGAGGAUCACCCAUGUCCUCAUAAGCUCGUCUUAG [Mat - Sensor v3 - Turn-off var 2 - D67] (puzzle: Sensor v3, turn-off variant 2)	–	–	–	39.3 nM	99 nM	44.6 nM
GCACUGCGAGGAUAUACAUGAGGAUCACCCAUGUGUCGGCAGCCAUGUCAGUACAAAUGUAGAAGGCGCGUAAA [EX3 #54] (Eterna round: R97, puzzle: Exclusion 3)	87.5 nM	–	28.8 nM	–	–	–
CAUUCCGAGCGAGGAUAUCAGUAAAAGGGAAGCUGAGAAGGCGCAAACAUGAGGAUCACCCAUGUCACACGCGGGUAGUUUUCC [Ditiso] (Eterna round: R96, puzzle: Exclusion NG 1)	13.9 nM	9.74 nM	14.3 nM	–	–	–
GGUACUAACACGAAAGUGUUAGUACUAUAAGCUUGUGUUACAUGAGGAUCACCCAUGUCCUCAUAGGCUCGUCUUAU [JL-sv3-2.18 mat747 mod] (puzzle: Sensor v3, turn-off variant 2)	–	–	–	292 nM	29.9 nM	252 nM
CACAGACAUGAGGAUCACCCAUGUUAGGAUAUGGAUAGCCUGCCAAGAAUAGGCGCCUCCAGAAGGAACUGGGA [Eternabot (Original) Solution 36] (Eterna round: R97, puzzle: Exclusion 1)	141 nM	–	61.1 nM	–	–	–
AAAAAGCGAGGAUAUACAUGAGGAUCACCCAUGUGAGGGCACCGCGGGCGCGGGACCGGUAGAAGGCGCAAAAA [Exc;s3-II] (puzzle: Exclusion 3)	–	–	–	33.6 nM	24.1 nM	38.5 nM
CGUAUGUGAGGAUAUGACAAUGGUAUCUUCGGAUACCAUUGUCAGAAGGAACAUGAGGAUCACCCAUGUAGAUC (Eterna round: R96, puzzle: Exclusion 4)	161 nM	43.1 nM	54.5 nM	–	–	–
AAUUAAUAUCAGGAUAUGACGUGCCUCGGCACGUCAGAAGGGAUGACAUGAGGAUCACCCAUGUGAUCAAUUAA [E6/1-A2] (Eterna round: R97, puzzle: Exclusion 6)	153 nM	–	28.7 nM	–	–	–
UUGAAGUCGUCAGGAUAUAGAUUUAAUGUCAUGCGUAUGUUCUUACAUGAGGAUCACCCAUGUCGCUAGAAGGGACUAUAGAUU [JR_ExcNG2_Sub008] (Eterna round: R96, puzzle: Exclusion NG 2)	54.6 nM	35.1 nM	45.1 nM	–	–	–
AAGUACCGUCACGAUAGUGAUGGUACAACAAGCAAAUGUACAUGAGGAUCACCCAUGUCCUCUUUUGCUCGUCUUGU [Sensor 3 - 100] (puzzle: Sensor v3, turn-off variant 2)	–	–	–	155 nM	30.2 nM	–
GUGCCGCGAGGAUAUACAGACGGGUCCAGUGCGUGUCUCGGACUUGAGGAUCACCCAAGUAGAAGGCGUCUCAG [salish99_ex2_r4_614] (Eterna round: R97, puzzle: Exclusion 2)	16.7 nM	–	31 nM	–	–	–
UUCGUGCAGCUUUGCUGUACGAGUACAUGAGGAUCACCCAUGUAGGAUAUGGUACGCUUUGCGUGCUAGAAGGAUAUGUGUAGG [JL EXNG3 1.37] (Eterna round: R96, puzzle: Exclusion NG 3)	55.5 nM	27.5 nM	43.9 nM	–	–	–
UUUAAUUUUUUUUUUUUACAAGCUUUUUGCUCGUCUUAUACAUGAGGAUCACCCAUGUGGGUAAAAGGUAAAUUAUC [JMF 63] (puzzle: Sensor v3, turn-off variant 2)	–	–	–	15.3 nM	32.8 nM	17.3 nM
GCAGGCGUCUUGGCUCGUCUUAUUUUGAGAGGAUUGAUAACAUGAGGAUCACCCAUGUUUGUGGGAGAGUUGCAGUG [JR_SV3TOV2_Sub016] (puzzle: Sensor v3, turn-off variant 2)	–	–	–	108 nM	283 nM	133 nM
